From patent US20090053138, “Stabilized Aptamers to Platelet Derived Growth Factor and their Use as Oncology Therapeutics” (published 2009)

Target: PDGF-BB (Homo sapiens, UniProt P01127 P01127:82-190)
Experiment: cell_activity; 3T3 proliferation; Table 2 prints 3.45
Settings: tags: PeproTech; chain copies: 2 (inferred, homodimer)

Chain of PDGF-BB (P01127 82-190, one chain of several): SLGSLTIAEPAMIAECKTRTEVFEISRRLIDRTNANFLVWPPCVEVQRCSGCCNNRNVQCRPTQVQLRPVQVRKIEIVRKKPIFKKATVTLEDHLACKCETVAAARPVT

For CACAGGCTACGGCACGTAGAGCATCACCATGATCCTGTG (ssDNA, 3'-inverted dT) [ARC124], the IC50 was 20.7 nM.
